The nanobody polyreactivity screen of Harvey et al. (2022)

Assay: yeast display, Sf9 membrane polyspecificity reagent, FACS + sequencing; frameworks hold sequencing errors
In short: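 After 36–48 hours of galactose induction, yeast (Saccharomyces cerevisiae BJ5465) displaying a synthetic nanobody library were stained at 4 °C for 1 hour with 10% biotinylated, detergent-solubilized Sf9 membrane reagent. Streptavidin microbeads enriched the stained cells before FACS sorting into low and high (top ~1%) gates on anti-HA and streptavidin fluorescence. Each clone's polyreactivity label reflects its gate of origin.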

Sequence	polyreactivity (PSR sort gate)
QVQFVESGGGLVQAGGSLRLSCAASGFTFVWYDMGGYRQAPGKERELVAAISSGGSTYYADSVKGRFTISRDNAKNTVYLQMNSLKPEDTAVYYCAVYTGYYNYIYQYDYWGQGTQVTVSS	low polyreactivity
QVQFVESGGGLVQAGGSLRLSCAASGFTFVWYDMGWYRQAPGKERELVAAISSGGSTYYADSVKGRFTISRDNAKNTVYLQMNSLKPEDTAVYYCAVYTGYYNYIYQYDYWGQGTQVTVSS	low polyreactivity
QVQGVESGGGLVQAGGSLRLSCAASGLTFKENVMGWYRKAPGKERELVAAISTGASTYYADSVKGRFTISRDNANNTVYLQMNSLKPEDTAVYYCAAERWAQGYTYEYWGQGTQVTVSS	high polyreactivity
QVQHEESGGGLVQAGGSLRLSCAASGRIFFGKVMGGYRQAPGTERELVAVITSGGNTNYADSVKGRFTISRDNAKNTVYLQMHSLKPEDTAVYYCATAVVAGVWGYDYWGQGTQVTVSS	low polyreactivity
QVQHEESGGGLVQAGGSLRLSCAASGRIFGTDAMGWFRQAPGKDRELVAAIRSSGDSTYYADSVKGRFTISRDNAKNTVYLQMNSLKPEDTAVYYCARTLRYYRPVLLVYRFGYWGQGTQVTVSS	high polyreactivity
QVQHEESGGGLVQAGGSLRLSCAASGRIFHFNTMGWYRQAPGKERELVAAITSSGGSTNYADSVKGRFTISRDNAKNTVYLQMNSLKPEDTAVYYCNADTGAADYFDFDYWGQGTQVTVSS	low polyreactivity
QVQHEESRGGLVQAGGSLRLSCAASVRTFSVNAMGRYRQAPGKEREFVAVISSNGGSTYYADSVKGRFTISLDNAKNTVYLQMNSLKPEDTAVYYCNARYWRGWGGRVSKYGYWGHGTQVTVSS	high polyreactivity
QVQHVDSGGGLVQEGGSLRLSCAASGRIFTYNAMGWYRQAPGKERELVAAISRRGGTTYYADSVKGRFTISRDNAKNTVYLQMNSLKPEDTAVYYCAAVVYTRGVTSRPVSRYDYWGQGTQVTVSS	high polyreactivity
QVQHVESAGGLVQAGGSLRLSCPASGRTINRNAMGWYRQAPGKERELVAAISWSGGRTYYADSVKGRFTISRDTAKNTVYLQMTSLKPEDTAVFSCAAPGNKYWGQGTQVTVSS	high polyreactivity
QVQHVESAGRLVQAGGSLRLSCAASGRILVYYALGWYRQPPGKEREFVAAISQRGGSTYYADSVKGRFTISRDNAKNTVYLQMNSLKPDDTEVYYCATRPIQYRRGYDYWGQGTQVTVSS	high polyreactivity
QVQHVESGAGLVQAGGSLRLSCAASGLILVYYAMGWYRQAPGKEREFVAAITPGGSTKYADSVKGRFTISRDNAKNTVYLQMNSLKPEDTAVYYCNALSGPYWYSVYQYHQDDYWGQGTQVTVSS	low polyreactivity
QVQHVESGAGLVQAGGSLRLSCAASGSIFEINAMGWYRQAPGKERELVAAITGSGGSTHYADSVKVRFTISRDNAKNTVYLQMNSLKPEDTAVYYCAAVPRYQYGYWGQGNQVTVSS	low polyreactivity
QVQHVESGAGLVQAGGSLRLTCAASARTFKPYARGWYRQPPGKERELLAVISFSGGSTYYADSVKGRFTISRDNSKNTFYLQMNSLKPEDTAVYYCNAEGVTRQGGYDYWGQGTQVTVSS	high polyreactivity
QVQHVESGARLVQAGGSLRLSCAASGSTFYRNTMGWYRQAPGTERELVAAISSGGSTNYADSVTGRFTISRDNAKNTVYLQMNSLKPEDTGVYYCAAAIRVISDGWYYYWYDYWGQGTPVTVSS	high polyreactivity
QVQHVESGGGIVQAGGSLRLSCAASGRIFDSNAMGWYRQAPGKERELVAAITTSGGSTFYADSVKGRFTISRDNAKNTVYLQMNSLKPEDTAVYYCAAGYSYYYHAIFPFDYWGQGTQVTVSS	high polyreactivity
QVQHVESGGGIVQAGGSLRLSCAASGSTFIYNAMGWYRQAPGKERELVAAIDWSGGDTYYADSVKGRFTISRDNAKNTVYLQMNCLKPEDTAVYYCATRWPHYGGYYYWGQGTQVTVSS	high polyreactivity
QVQHVESGGGIVQAGGSLRLSCAASGSTFRWYAMGWYRQARGQERELVAAFTAGGRTYYADSVKGRFTISRDNAKNTVYLQMNSLKPEDTAVYYCNALGKVWRGGKFGYWGQGTQVTVSS	high polyreactivity
QVQHVESGGGLGQAGGSLRLSCAASGGTFQTNAKGCYRQAPGKERELVAGIRWRGGSTYYADSVKGRFTISRDNAKNTVYLQMKSLKPEDTAVYYCAAYYWQGTYDSRRTGWRLMNYWGQGTQVTVSS	high polyreactivity
QVQHVESGGGLLQAGGSLRLTCAASGSTFGTYAMGWYRQAPGKERELVATISIGGITYYADSVKGRFTISRDNAKNTVYLQLNSLKPEDTAVYYCAKDVNDATSRSDPSGDDYWGQGTQVTVSS	low polyreactivity
QVQHVESGGGLLQPGGSLRLSCAASGSTFRTNAMGWYRQAPGKERELVAAISRSTGSTYYADSVKGRFTISRDNAKNTVYLQMNSLKTVDSAVFYCNALSGFWGQGTQVTVSS	low polyreactivity
QVQHVESGGGLVQAGGSHRLSSAASGSTFIPNAMRWYRQAPGKERELVAAISGSGGRTYYADSVKGRFTISRDNAKNTVYLQMNSLKPEDTAVYYCAASGTSRSRKSYYWGQGTQVTVSS	high polyreactivity
QVQHVESGGGLVQAGGSLRLICAASGIIFDYNAMGWYRQAPGKERELVATNNDSGGSTSYAYSVKGRFTISRDKAKNTVYLQMNCLKPDDTAVYYCAVLPVYWYWRNYVYLSGYDYWGQGSQVTVSS	low polyreactivity

Sequence	polyreactivity (PSR sort gate)
QVQHVESGGGLVQAGGSLRLRCAASGFTFRRYALGWYRQAPGKERELVAAISGSGGSTYYADSVKGRFTISRDKAKNTVYLQMNSLKPEDTAVYYCNALLRAIAEYDYWGQGTQVTVSS	high polyreactivity
QVQHVESGGGLVQAGGSLRLRCAASGSIFYINAMGWYRQAPGQERELVAAITSDGSTYYADSVKGRFTISGDNAKNSVYLQINSLKPEDTAVYYCAADLTSDQYVYYWYWFYSWGQGTQVTVSS	low polyreactivity
QVQHVESGGGLVQAGGSLRLSCAASGFIFAWYTMGWDRQAPGKERELVAAISRSGVRTYYADSVKGRFTISRDNAKNTVYLQMNSLKPEDTAVYYCAVDWYPTMDYWGQGTQVTLSS	high polyreactivity
QVQHVESGGGLVQAGGSLRLSCAASGFIFNRNAMGWYRQAPGKERELVAAISTRGSTYYADSVKGRFTISRDNAKNTDYLQMNSLKPEDTAVYYCAKAVYVDQGTYYYCGQGTQVTVSS	low polyreactivity
QVQHVESGGGLVQAGGSLRLSCAASGFIFTYYGMGWYRQAPGKERELVAAITWSGASTYYADSVKGRFTISRDNAKNTVYLQMNSLKPEDSAVYYCNAVWDSGIVQSDETVYKYDYWGQGTQVTVSS	low polyreactivity
QVQHVESGGGLVQAGGSLRLSCAASGFIFVSYTMGWYRHAPGKEWELVATITVSDGSTYYADSVKGRFTISRDNAKNTVYLQMNSLKPEDTAVYYCNKDKVVVRYDYWGQGTQVTVSS	low polyreactivity
QVQHVESGGGLVQAGGSLRLSCAASGFTFGYYAMGWYRQAPGKESELVAAIRSSGGSTYYADSVKGRFTISRDYAKNTDYLQMNSLKPEDSAVYYCAVLYGYLSSSRYGYDSWGKGTQVTVSS	high polyreactivity
QVQHVESGGGLVQAGGSLRLSCAASGFTFKRNAMGWYRPAPGKERELVAAITWSGGSTYYADSVKGRFTISRDNAKNTVYLQMNSLKPEDTEVYYCAALYRSRYYSGDYWGQGTQVTVSS	high polyreactivity
QVQHVESGGGLVQAGGSLRLSCAASGFTFRWYTMGWYRQAPGKERELVASIRYGGGSTYYADSVKGRFTISRDNAKNTVYLQMNSLKPEDTAVYYCAAESAWTSPYDYWGQGTQVTVSS	high polyreactivity
QVQHVESGGGLVQAGGSLRLSCAASGFTFRYNAMGWYRQAPGKKGSWVAAISRTGGSTYYADSVKGRFTISRDNAKNTVYLQMNSLKPEDTAVYYCARAPEGTGGKYGYWGQGTQVTVSS	high polyreactivity
QVQHVESGGGLVQAGGSLRLSCAASGFTIVYYGMGRYRQAPGKERELVAAITYSGGRTYYADSVKGRFTISRDNAKNTVYLQMNSLKPEDTAVYYCNAYTQQYRSYGYWGQGTQVTVSS	high polyreactivity
QVQHVESGGGLVQAGGSLRLSCAASGGIFYYYAMGWYRPAPGKERELVATISNGGSTYYADSVKGRFTISRDNAKNTVYLQMNSLNPEDTAVYYCAARDGRQPRGYRLVTYYAPMYYWGQGTQVTVSS	high polyreactivity
QVQHVESGGGLVQAGGSLRLSCAASGGTFGDYAMGWSRQAPGKEREFVASITRSVSNTYYADSVKGRFTISRDNAKNTVYLQMNSLKPEDTAVYYCNADRWYPWRYIMDYWGQGTQVTVSS	low polyreactivity
QVQHVESGGGLVQAGGSLRLSCAASGGTFRPYARGWSIQAPGKERELVAAISYTGSTYYADSVKGRFTISRDNAKYTVYLQMNSLKPEDTAVYYCAKDFWYPPRFDYWGQGTQVTVSS	low polyreactivity
QVQHVESGGGLVQAGGSLRLSCAASGGTFYTYAMGWYRQAPGKERELVAAITSRGSSTYYADSVKGRFTISRDNANNTVYLQMNSLKPEDTAVYYCARRSQRGMYSMYYWGQGTQVTVSS	low polyreactivity
QVQHVESGGGLVQAGGSLRLSCAASGIFVDNAMGWYRQARGKERELVAAITSSTDSTYYADSVKGRFPISRDNAKNTVYLQINSLNPEDSAVYYCAVARPGGFYFLVHYGYGYWGQGTQVTVSS	low polyreactivity
QVQHVESGGGLVQAGGSLRLSCAASGIIFDGNVMGWDRQAPGKEREFVASISISGGSTSYADSVKGRFTISRDNAKNTVYLQMNSLKPEDTAVYYCNTDVGYGRVCRWRYHGDYWGQGTQVTVSS	low polyreactivity
QVQHVESGGGLVQAGGSLRLSCAASGIIFIVYAMGWYRQAPGKERELVAAISNGGSTYYADSVKGRFTISRDNAKNTVYLQMNSLKPEDTAVYYCAAGGALASQWSKKLYDYWGQGTQVTVSS	low polyreactivity
QVQHVESGGGLVQAGGSLRLSCAASGIIITGNAMGWYRQAPGKERELVAAISTSGGRTYYADSVKGRFTISRDNAKNTVYLQMNSLKPEDTAVYYCAADDLSGTELYYWGQGTQVTVSS	high polyreactivity
QVQHVESGGGLVQAGGSLRLSCAASGLIFARNAMVWYRQAPGKERELVAAISSSGNTYADSVKGRFTISRDNAKNTVYLQMNSLKPEDTAVFYCAADYVRWGQRKRSRYYYWGHGTQVTVSS	high polyreactivity
QVQHVESGGGLVQAGGSLRLSCAASGLIFSWTAMGWYRQAPGKERELVASISYSGGRTYYADSVKGRFTISRDNAKNTVYLQMNSLKPEDTAVYYCAADTNATTDPEMDYWGQGTQVTVSS	low polyreactivity
